Laboratory results reported in the supplement of paper PMC5998384.

Tests used:
HeLa Kyoto [1] = assay: solubility change mitosis vs G1/S (difference of NP-40 vs SDS log2 ratios) (log2 ratio difference); higher = more soluble in mitosis
HeLa Kyoto [2] = assay: solubility in G1/S (NP-40 vs SDS abundance) (log2 ratio); higher = more soluble; details: cell cycle stage: G1/S
HeLa Kyoto [3] = assay: melting temperature (median over replicates), in situ; higher = more thermally stable
HeLa Kyoto [4] = assay: thermal stability score vs G1/S (z-score of summed log2 fold changes over temperatures); higher = more thermally stable than in G1/S
[5] = cell cycle stage: early G1 (4.5 h after nocodazole release)
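For melting temperature (median over replicates), in situ in this document: HeLa Kyoto cells synchronized by double thymidine or nocodazole block, proteins quantified by TMT10plex mass spectrometry, three independent biological replicates.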
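For solubility change mitosis vs G1/S (difference of NP-40 vs SDS log2 ratios) in this document: synchronized HeLa Kyoto cells (double thymidine block for G1/S, nocodazole release for mitosis), protein amounts in NP-40 versus SDS lysates quantified by mass spectrometry, three biological replicates.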
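For solubility in G1/S (NP-40 vs SDS abundance) in this document: HeLa Kyoto cells arrested at G1/S by double thymidine block, proteins quantified by TMT10plex mass spectrometry in mild NP-40 versus SDS extracts, three biological replicates.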
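For thermal stability score vs G1/S (z-score of summed log2 fold changes over temperatures) in this document: synchronized HeLa Kyoto cells, proteins quantified by TMT10plex mass spectrometry, three biological replicates, mitosis taken 0.5 h after nocodazole release, G1/S directly after double thymidine block.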

PNO1, sequence (chain, as listed by the source): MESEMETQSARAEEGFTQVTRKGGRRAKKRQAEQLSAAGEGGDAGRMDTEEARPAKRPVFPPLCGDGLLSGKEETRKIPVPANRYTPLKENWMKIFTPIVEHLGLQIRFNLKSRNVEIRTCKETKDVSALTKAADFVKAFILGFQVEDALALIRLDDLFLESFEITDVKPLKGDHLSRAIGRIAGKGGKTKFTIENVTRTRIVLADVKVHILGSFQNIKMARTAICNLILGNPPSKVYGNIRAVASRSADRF
PPIC, sequence (chain, as listed by the source): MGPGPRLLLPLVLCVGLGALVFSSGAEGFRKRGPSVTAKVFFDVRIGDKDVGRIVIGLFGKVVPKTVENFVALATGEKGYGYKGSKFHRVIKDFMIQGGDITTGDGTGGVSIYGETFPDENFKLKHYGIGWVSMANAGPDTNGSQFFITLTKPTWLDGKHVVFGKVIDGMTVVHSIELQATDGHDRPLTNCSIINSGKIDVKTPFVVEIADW
PTBP3, sequence (chain, as listed by the source): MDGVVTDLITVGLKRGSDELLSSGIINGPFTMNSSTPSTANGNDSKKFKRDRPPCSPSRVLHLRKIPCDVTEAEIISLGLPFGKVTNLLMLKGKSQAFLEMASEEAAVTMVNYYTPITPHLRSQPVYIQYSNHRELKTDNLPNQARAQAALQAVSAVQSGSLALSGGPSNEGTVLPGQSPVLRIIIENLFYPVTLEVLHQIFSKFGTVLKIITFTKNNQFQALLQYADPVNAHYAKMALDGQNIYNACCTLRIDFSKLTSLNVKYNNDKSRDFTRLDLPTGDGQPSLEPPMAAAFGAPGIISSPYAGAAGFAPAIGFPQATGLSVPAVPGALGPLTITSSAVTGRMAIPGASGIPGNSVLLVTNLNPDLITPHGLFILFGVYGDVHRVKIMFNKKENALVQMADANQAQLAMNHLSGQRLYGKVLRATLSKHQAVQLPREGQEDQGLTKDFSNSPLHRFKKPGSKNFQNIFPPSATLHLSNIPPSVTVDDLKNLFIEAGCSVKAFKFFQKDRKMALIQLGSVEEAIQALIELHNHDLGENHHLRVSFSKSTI
PNN, sequence (chain, as listed by the source): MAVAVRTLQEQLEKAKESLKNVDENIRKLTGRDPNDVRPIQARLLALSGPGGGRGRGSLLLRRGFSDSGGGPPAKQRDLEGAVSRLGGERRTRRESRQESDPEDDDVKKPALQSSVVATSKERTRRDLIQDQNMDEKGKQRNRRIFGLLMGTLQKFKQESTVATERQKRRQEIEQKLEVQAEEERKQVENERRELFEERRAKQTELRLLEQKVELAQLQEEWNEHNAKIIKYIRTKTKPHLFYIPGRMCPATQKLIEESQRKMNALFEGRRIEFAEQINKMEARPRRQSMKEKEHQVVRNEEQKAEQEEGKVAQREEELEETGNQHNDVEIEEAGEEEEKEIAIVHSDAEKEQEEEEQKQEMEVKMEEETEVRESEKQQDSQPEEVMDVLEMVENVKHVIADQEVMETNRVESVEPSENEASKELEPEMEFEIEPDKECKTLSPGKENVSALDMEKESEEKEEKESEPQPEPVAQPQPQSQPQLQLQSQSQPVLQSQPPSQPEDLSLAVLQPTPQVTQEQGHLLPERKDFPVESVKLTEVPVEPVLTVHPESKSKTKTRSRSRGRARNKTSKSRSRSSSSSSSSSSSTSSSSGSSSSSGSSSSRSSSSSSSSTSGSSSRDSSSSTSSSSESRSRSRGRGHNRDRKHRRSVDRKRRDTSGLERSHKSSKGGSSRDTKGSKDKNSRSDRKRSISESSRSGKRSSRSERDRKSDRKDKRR
PPIB, sequence (chain, as listed by the source): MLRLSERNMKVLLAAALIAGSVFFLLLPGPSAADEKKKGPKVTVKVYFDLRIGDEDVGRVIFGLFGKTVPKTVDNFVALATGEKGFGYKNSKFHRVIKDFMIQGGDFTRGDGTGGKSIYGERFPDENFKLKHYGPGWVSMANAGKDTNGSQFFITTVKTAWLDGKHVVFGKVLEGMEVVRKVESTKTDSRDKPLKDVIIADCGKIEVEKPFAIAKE
TIMM17B, sequence (chain, as listed by the source): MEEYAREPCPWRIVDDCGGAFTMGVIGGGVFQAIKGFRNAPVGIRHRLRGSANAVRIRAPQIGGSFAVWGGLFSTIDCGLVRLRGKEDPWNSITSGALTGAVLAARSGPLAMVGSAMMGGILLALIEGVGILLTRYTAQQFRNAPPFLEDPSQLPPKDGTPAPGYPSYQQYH
TLK2, sequence (chain, as listed by the source): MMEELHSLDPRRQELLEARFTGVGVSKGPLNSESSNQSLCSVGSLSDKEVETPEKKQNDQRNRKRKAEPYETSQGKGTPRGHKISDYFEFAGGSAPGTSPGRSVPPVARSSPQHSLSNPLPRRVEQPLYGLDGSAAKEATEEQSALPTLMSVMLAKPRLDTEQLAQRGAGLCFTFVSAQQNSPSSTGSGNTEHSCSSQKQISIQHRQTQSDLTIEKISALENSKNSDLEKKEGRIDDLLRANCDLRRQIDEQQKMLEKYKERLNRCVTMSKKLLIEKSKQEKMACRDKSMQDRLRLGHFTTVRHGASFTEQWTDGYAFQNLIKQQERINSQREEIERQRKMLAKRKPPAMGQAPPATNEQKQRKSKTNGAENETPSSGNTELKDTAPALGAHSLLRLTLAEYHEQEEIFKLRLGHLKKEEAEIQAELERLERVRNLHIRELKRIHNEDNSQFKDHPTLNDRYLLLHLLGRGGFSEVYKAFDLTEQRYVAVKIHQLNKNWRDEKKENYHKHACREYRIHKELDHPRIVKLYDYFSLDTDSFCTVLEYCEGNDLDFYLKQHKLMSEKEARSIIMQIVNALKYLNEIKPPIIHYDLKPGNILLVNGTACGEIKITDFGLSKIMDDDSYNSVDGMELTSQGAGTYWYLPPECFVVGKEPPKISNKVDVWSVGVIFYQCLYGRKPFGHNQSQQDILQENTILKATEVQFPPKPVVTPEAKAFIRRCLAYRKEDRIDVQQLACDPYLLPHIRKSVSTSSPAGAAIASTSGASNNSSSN
SLC7A2, sequence (chain, as listed by the source): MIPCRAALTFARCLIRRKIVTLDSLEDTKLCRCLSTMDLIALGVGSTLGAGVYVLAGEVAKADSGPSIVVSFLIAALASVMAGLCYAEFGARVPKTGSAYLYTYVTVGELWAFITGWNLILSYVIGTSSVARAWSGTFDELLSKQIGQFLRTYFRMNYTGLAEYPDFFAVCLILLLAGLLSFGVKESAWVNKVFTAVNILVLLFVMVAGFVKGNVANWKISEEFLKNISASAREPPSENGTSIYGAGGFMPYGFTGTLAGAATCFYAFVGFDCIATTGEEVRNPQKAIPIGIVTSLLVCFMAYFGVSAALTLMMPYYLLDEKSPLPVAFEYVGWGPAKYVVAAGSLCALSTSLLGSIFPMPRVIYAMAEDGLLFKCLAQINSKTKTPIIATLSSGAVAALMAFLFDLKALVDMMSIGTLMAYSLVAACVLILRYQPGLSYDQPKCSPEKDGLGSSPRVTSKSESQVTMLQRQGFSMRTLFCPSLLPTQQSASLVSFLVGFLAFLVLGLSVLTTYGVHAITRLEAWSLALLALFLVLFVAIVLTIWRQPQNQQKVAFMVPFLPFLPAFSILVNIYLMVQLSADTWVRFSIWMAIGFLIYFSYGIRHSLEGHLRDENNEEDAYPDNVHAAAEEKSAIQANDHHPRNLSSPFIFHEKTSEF
UAP1, sequence (chain, as listed by the source): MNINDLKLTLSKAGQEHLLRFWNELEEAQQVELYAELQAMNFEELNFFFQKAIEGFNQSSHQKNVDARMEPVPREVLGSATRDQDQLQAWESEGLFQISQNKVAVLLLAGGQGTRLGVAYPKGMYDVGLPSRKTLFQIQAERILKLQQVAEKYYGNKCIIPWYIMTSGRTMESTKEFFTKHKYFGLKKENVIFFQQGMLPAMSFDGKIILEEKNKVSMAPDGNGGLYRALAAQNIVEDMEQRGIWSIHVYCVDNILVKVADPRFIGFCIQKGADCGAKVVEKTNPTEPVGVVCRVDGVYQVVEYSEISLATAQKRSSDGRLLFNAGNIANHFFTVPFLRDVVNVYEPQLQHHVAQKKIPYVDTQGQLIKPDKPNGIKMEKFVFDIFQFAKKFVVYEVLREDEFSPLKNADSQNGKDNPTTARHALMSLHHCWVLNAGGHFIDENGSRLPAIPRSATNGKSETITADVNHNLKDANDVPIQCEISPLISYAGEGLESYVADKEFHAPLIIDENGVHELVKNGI
PPIE, sequence (chain, as listed by the source): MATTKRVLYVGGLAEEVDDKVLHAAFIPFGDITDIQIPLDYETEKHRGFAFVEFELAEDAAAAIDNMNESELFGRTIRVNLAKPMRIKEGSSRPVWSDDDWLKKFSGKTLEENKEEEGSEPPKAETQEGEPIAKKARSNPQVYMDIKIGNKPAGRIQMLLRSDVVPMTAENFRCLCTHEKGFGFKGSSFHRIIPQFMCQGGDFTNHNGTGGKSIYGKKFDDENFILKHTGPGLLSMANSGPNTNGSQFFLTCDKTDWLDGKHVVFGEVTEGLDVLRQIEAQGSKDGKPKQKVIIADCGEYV

Substance	solubility change mitosis (log2) (HeLa Kyoto [1])	solubility in G1/S (log2) (HeLa Kyoto [2])	melting temperature (HeLa Kyoto [3]; cell cycle stage: G1/S)	melting temperature (HeLa Kyoto [3]; cell cycle stage: mitosis)	thermal stability score (HeLa Kyoto [4]; [5])	thermal stability score (HeLa Kyoto [4]; cell cycle stage: mitosis)
NUP214	0.0567	-0.301	50.5 °C	49.8 °C	-1.39	-1.03
OXCT1	-0.0718	0.23	53 °C	52.8 °C	-1.63	-1.92
OXSR1	-0.146	0.197	49.1 °C	49.6 °C	1.02	0.906
PARP4	-0.107	-0.0707	50.7 °C	49.8 °C	1.67	0.026
PCM1	0.65	-0.73	49.8 °C	50.3 °C	-0.276	0.507
PCNT	-0.162	-0.221	50.8 °C	52.9 °C	2.3	2.45
PELP1	0.451	-1.2	55.2 °C	53.8 °C	-1.93	-5.97
PKM	-0.106	0.116	57.8 °C	57.4 °C	-2.6	-2.54
PLEC	0.643	-2.57	53.2 °C	52.7 °C	-8.96	-8.24
PNKP	-0.0487	0.193	48.6 °C	49.3 °C	0.324	1.25
PNN	0.808	-1.25	48.6 °C	50 °C	0.124	3.19
PNO1	0.449	-0.779	50.3 °C	50 °C	0.178	0.628
PPIB	0.0983	0.0181	53.8 °C	54.4 °C	4.65	4.71
PPIC	-0.103	0.0897	53.6 °C	53.4 °C	1.01	-0.315
PPIE	0.13	0.351	49 °C	51.7 °C	1.18	2.29
PPIF	0.14	0.731	52.2 °C	52.1 °C	0.427	-1.83
PPP2R5A	-0.192	0.0389	50.8 °C	50.5 °C	0.702	1.43
PRRC2C	0.111	-0.328	55.6 °C	55.2 °C	-0.644	-2.2
PRSS21	-0.176	0.0531	52.9 °C	52.9 °C	0.469	0.197

Substance	solubility change mitosis (log2) (HeLa Kyoto [1])	solubility in G1/S (log2) (HeLa Kyoto [2])	melting temperature (HeLa Kyoto [3]; cell cycle stage: G1/S)	melting temperature (HeLa Kyoto [3]; cell cycle stage: mitosis)	thermal stability score (HeLa Kyoto [4]; [5])	thermal stability score (HeLa Kyoto [4]; cell cycle stage: mitosis)
PTBP3	0.15	-0.19	46.6 °C	48 °C	0.736	1.3
RAB14	-0.0891	0.0669	60.6 °C	58.8 °C	-1.89	-3.07
RALGAPB	-0.169	-0.0337	50.2 °C	51 °C	-1.55	-1.73
RAPGEF2	-0.144	-0.143	50.8 °C	–	-0.581	-1.21
RHOG	-0.00567	0.562	55.9 °C	55.2 °C	-1.81	-2.65
SAMD9	-0.171	-0.156	47.5 °C	49.2 °C	0.5	1.68
SAR1B	-0.182	-0.00727	52.3 °C	53.4 °C	0.15	0.55
SDHA	-0.0448	-0.11	54.7 °C	56.4 °C	1.89	2.23
SLC7A2	-0.149	0.0385	55.5 °C	57 °C	-3.64	-8.3
SLC7A5	-0.0332	0.0865	60.4 °C	57.8 °C	-2.12	-3.93
SMCHD1	-0.104	-0.216	47.4 °C	48.7 °C	3.02	5.78
SPTAN1	0.485	-0.956	53 °C	51.5 °C	-0.312	-1.93
SPTBN2	0.477	-1.02	51.8 °C	50.8 °C	0.264	-0.194
SRGAP2	0.0509	0.0333	50 °C	50.5 °C	0.993	0.737
SRRM2	0.682	-0.81	48.3 °C	50.2 °C	-1.58	5.67
STK24	-0.0565	0.479	51.7 °C	52.3 °C	4.29	2.12
STK26	-0.0994	0.393	49.1 °C	49.8 °C	1.96	2.98
TACC2	-0.0921	0.219	54.3 °C	53.8 °C	-1.3	1.83
TANC2	-0.0218	0.222	–	50.3 °C	0.0704	0.122

Substance	solubility change mitosis (log2) (HeLa Kyoto [1])	solubility in G1/S (log2) (HeLa Kyoto [2])	melting temperature (HeLa Kyoto [3]; cell cycle stage: G1/S)	melting temperature (HeLa Kyoto [3]; cell cycle stage: mitosis)	thermal stability score (HeLa Kyoto [4]; [5])	thermal stability score (HeLa Kyoto [4]; cell cycle stage: mitosis)
TATDN1	-0.119	0.194	56.1 °C	56.4 °C	-1.11	-2.1
TCF20	0.527	-0.513	–	51.1 °C	0.72	1.03
TIMM17B	0.0028	0.308	54.9 °C	57.2 °C	-0.611	-0.727
TJP1	0.126	-0.366	49.3 °C	50.3 °C	-0.423	1.4
TLK2	-0.141	-0.0304	50.9 °C	52.2 °C	1.27	1.41
TLN2	0.0273	-0.145	50.5 °C	50.4 °C	-0.491	-0.643
TOP2B	0.675	-2.12	52.2 °C	51.6 °C	0.414	1.45
TPM4	0.532	0.907	55.8 °C	–	-0.98	-3.48
TRIOBP	0.0573	0.139	49.1 °C	49.3 °C	0.418	1.17
TRIP12	0.333	-0.461	48.4 °C	48.7 °C	-0.291	0.532
UAP1	-0.119	0.216	53.2 °C	53.3 °C	0.837	1.62
URB1	0.746	-1.55	–	50.5 °C	0.229	0.403
USP24	-0.155	-0.205	51.4 °C	50.5 °C	0.0834	-0.634
UTP20	0.363	-1.01	47.3 °C	50.7 °C	1.17	5.97
VLDLR	-0.0963	-0.0421	56.4 °C	55.4 °C	-2.48	-3.74
VPS13C	-0.127	-0.229	52.7 °C	53.1 °C	-0.0535	-0.882
WDR45B	-0.118	0.0796	54.5 °C	57.4 °C	0.71	-1.09
ZZEF1	-0.0476	-0.243	51.8 °C	51.5 °C	0.459	0.456
